The values below come from the DeepSol protein solubility set.

The nature of the data set: soluble on expression in E. coli; label from the status in PepcDB or PDB records.
For “MGSDKIHHHHHHKRQVSGDEAYLQASPLSELHAPAGMILPIQVGDYNIPVANSTGAVGKALDIRPPAQPLALVSGARTQFNGDTATLMVENGRSGSLWAQVTSILQAKNYVIAKRDDASQTLNTDWVEWNRLDEDQQYRGRYQISVKPQGYQQAVVVKLVNLEQAGKPVADPASLQRYSTAMLNVISEGLDMNATSAQNAAQRSAGATFDVQSAADDTGLPMLVVRAPFNLVWQRLPGALEKVGMKVTDSTRSQGSMALTYKPLSDSSWQELGARDPQLVSGDYKLQVGDLDNRSSLQFIDPKGHTLTQSQNDALVAVFQAAFNK”, the “soluble on expression in E. coli” value is “not soluble”. The value for “MYRDRVRLPSLLDKVMSAAEAADLIQDGMTVGMSGFTRAGEAKAVPQALAMRAKERPLRISLMTGASLGNDLDKQLTEAGVLARRMPFQVDSTLRKAINAGEVMFIDQHLSETVEQLRNHQLKLPDIAVIEAAAITEQGHIVPTTSVGNSASFAIFAKQVIVEINLAHSTNLEGLHDIYIPTYRPTRTPIPLTRVDDRIGSTAIPIPPEKIVAIVINDQPDSPSTVLPPDGETQAIANHLIDFFKREVDAGRMSNSLGPLQAGIGSIANAVMCGLIESPFENLTMYSEVLQDSTFDLIDAGKLRFASGSSITLSPRRNADVFGNLERYKDKLVLRPQEISNHPEVVRRLGIIGINTALEFDIYGNVNSTHVGGTKMMNGIGGSGDFARNAHLAIFVTKSIAKGGNISSVVPMVSHVDHTEHDVDILVTEQGLADLRGLAPRERARVIIENCVHPSYQAPLLDYFEAACAKGGHTPHLLREALAWHLNLEERGHMLAG” was “soluble”; that for “MGHHHHHHSHMANSMANSLSSTQTDYRLSDDLLGPVLAILDAYIDPYLAKGLVSAGCVNKLAIEGKRLQLGLVYPYPCMTQYRDTVMALTNKLAVLDAIDEVECEIDFQPKVYSAIASIAPIANVKQVIAVASGKGGVGKSTTAVNLALALAAEGAQVGILDADIYGPSVPLMLGIPNFRPVSPDGKHMTAASAYGIAAQSIGFMLSGDEAAVWRGPMAAGALAQLLNETQWPELDYLVVDMPPGTGDIQLTLSQKVPVSGAVIVTTPQDIALADAKKGITMFQKVNIPVLGIVENMSFHLCPECGHKEHPFGTHGGSKMAERYQVPLLGALPLHINIREAMDVGAPTVVAEPDSEVAALYREIARKVGAELALKQSQKTVSISVSDDE” was “not soluble”; that for “MSQIEFKNVSKVYPNGHVGLKNINLNIEKGEFAVIVGLSGAGKSTLLRSVNRLHDITSGEIFIQGKSITKAHGKALLEMRRNIGMIFQHFNLVKRSSVLRNVLSGRVGYHPTWKMVLGLFPKEDKIKAMDALERVNILDKYNQRSDELSGGQQQRISIARALCQESEIILADEPVASLDPLTTKQVMDDLRKINQELGITILINLHFVDLAKEYGTRIIGLRDGEVVYDGPASEATDDVFSEIYGRTIKEDEKLGVN” was “not soluble”. The result for “MGTITGEFTEHSAEAIAAMLSYIVQTEYEKKQLAKDTLQKYEEVVFLSQFANAVATCTGLQELIEVIRAEIRQVISVDEIFLYLYDQSQDSLTPLLYKTEESLQNFKAIEKIVERVLKLNQVEVIDDIQNDQDYLNQPSKIRSLLCYSLTVQNSIIGVLGLAHYQVKHFDSSDLNLFSTLTGQVAAAIRTAQYYETIKNYSQTLEIRLEHHHHHH” reads “not soluble”. The value for “MGSDKIHHHHHHMRFIAGPLNKQLLQNLLGEVIESCTRVRAAVAYASRDNMKLFEACAQHLKPLEFFGRYDHTVAVDPAVLKWFLDKASPNYDCKLVPDILHAKIIWWVDAGAYIGSANLSDRAWISNIEAGTFLPHDELVETGMERELQRFFEEVDDRARPLTKEIYQEQLRLADRRSELSKREYGLEQQFDKDRLLPKNHGLVFVDTKRSSEKRFQKFEQDWNDTLQVMRSIASRVAAPGAKPAWIDASVAPGVQADQFLHAYYYKQVKDGNRHPYEEFFDRNSKNPELALRDALEWWHDADFDHSFEERTIYEWSPRLRELLARDRILKLTEQEFVDAVSRVHAIRDHAIKQENEHLGLPDRPQAGDDKVEKFGEWLWRQRSREGRTVLELLNYVVWGNGSVSARLWNAIRSDDWAIPHIGLSSLGEIVGWARPDEYPPRNMRTSKGLRALGYNVRIGV” was “not soluble”; that for “MPISELEKKWTGLTFEIAAEEMRRLKSEPTDRERLKLYALYKQALHGDIPNEDVYPVPAGDEVGRKKYAAWKSQKGANSEKCRADYVAIAEEMIKKYGRNIVRCKWNSEVWSVDY” was “soluble”; that for “MLEKGGIRVIDEKTLEIIVREVLTNLTSDKGTQNQQKTASSSLPKLDPKRDYPLAKNKPELAKSITGKTINEITLQAVREGKVLPDDLKISPETLLAQAEIAEAAGRKQLANNFRRAAELTKVPDKRILEIYNALRPYRSTKEELLAIADELDNAYGAKVCAAFVREAAEVYERRGRLKGME” was “not soluble”.

As for “MGSDKIHHHHHHMQFGAKPLFENVSVKFGNGNRYGLIGANGCGKSTFMKILGNDLEPSAGQVMLEPNVRLGKLRQDQFAYEDFSVIDTVIMGHEELWAVKAERDRIYSLPEMSEADGMAVAELEVQFAEFDGYTAESRAGELLLGLGIPLEQHFGPMSAVAPGWKLRVLLAQALFSDPDVLLLDEPTNHLDINTIRWLEGVLTARNSTMIIISHDRHFLNSVCTHMADLDYGELRLFPGNYDEYMTAAEQARERLLSDNAKKKAQIAELQSFVSRFSANASKAKQATSRARQIDKIQLEEVKPSSRVSPFIRFEQYKKLHRQAVTVENISKGYDGKPLFKGLSLQVEAGERVAIIGPNGIGKTTLLRCLVGDLPVDGGEVKWTDSADVGYFAQDHADDFADDMSLFDWMAQWTQGGEQLVRGTLGRMLFSNDEIKKSVKVISGGEQGRMLFGRLILKRPNVLVMDEPTNHLDMESIEALNLALDNYPGTLIFVSHDREFVSSLATRIIELGENGVTDFSGSYDDYLRSQGVIV”, the “soluble on expression in E. coli” value is given as “not soluble”.

With “MADPSFASGRLGSRLQGSIAMIAEELLRAGRLDDALKALQEQVRSQPSNATLRIFLFQLLAVMGQWARAQNQLKVVGELDASALPMVQTYSTAIDCEALRREVFAGRLTPVILGQPAEWIAPLLQALSLDAEGHGEAAQALREQAFDAAPAVPGRIGEAPFAWLADADTRLGPVLEVIVNGRYAWLPMSNLRSLKVEAPSDLRDLVWLPAELTLANGGATVALLPARYAETVEHGDDAARLGRKTEWLDSGLPVGQRLFVTDAGETALFDLRELDFEPTDA”, the “soluble on expression in E. coli” value is reported as “not soluble”. Regarding “MLETETGRYSDTLRSALVSLDGDNAWALSESWCGTIQWICPSPYRPHHGRKNWFLGIGRFTADEQEQSDAIRYETLRSSGPGGQHVNKTDSAVRATHLASGISVKVQSERSQHANKRLARLLIAWKLEQQQQENSAALKSQRRMFHHQIERGNPRRTFTGMAFIEGLEHHHHHH”, the “soluble on expression in E. coli” value was “not soluble”. The value for “MDGGFVRVCLLASGSKGNSLFVESDGTRVLIDAGLSAREIVRRLAVIEVEPADLDGLFISHEHVDHVRGVGVLARKYRLPVHVSYPTHHEVREGFGDAPVVEFESGYSFGFRDLLIDPFPITHDACDPVGFTIESKEGKVGIATDLGTATRLVADKLKRCRVLVLESNHDEEMLMGGPYPWHLKQRIKSRHGHLSNNDSAALLAEVLHPGLEGLFLAHLSEVNNDPAVAKEVAENLLVAQTTCSPRLIVGDQYRPSETLTLLEHHHHHH” was “soluble”. With “MGSDKIHHHHHHKETSEKPVLFPDYADVTIPYNIAPLNFKIENPHAEAFAVLKFGEEKIQVKEKGGQFYLPASDWRKLLKRATGKAIQVKLYAKDKEWLAYPEFSLFVAPEPMDSYLAYRLIEPGYELWNQMGIYQRNLEDYKQSPIMENKYSGQNCMNCHSFCMQNPDKMLFHMRDKYSGTYLIDGDKIEKLNTKTDQTISPLVYPSWHPSGKYVAFSVNQTSQSFHANDKNRVEVFDSQSDVVVYDTEKHEIISTPSIRTAKAFETFPTFSPDGKTLYFCSAEARSMPHEYSEVKYNLCSIAFDPVTRSFGSRIDTLYNAGKDGKSASFPRVSPDGKFLLYTLSGYGNFSIWHKDADLYLLDIASGISHSLQNANSTDTESYHSWSSNSRWIVFSSRRIDGLYTRPYFAYIDEEGNASKPFLLPQKDTDYYHRFMKSYNIPEFITGKVSSKIRALSTLAKEDKGIDVTYRK”, the “soluble on expression in E. coli” value is reported as “not soluble”.

On to “MGNSSSLMLRDEEIEEIMSETEFNRNQIVRLYSRFLSLDKKGQGFLSRDDFLNVPELAVNPLGDRIVDAFFTLASSNGDNEEQQLNFRQFVRILAHFQPISRVKKNALNSRKDKLLFAFKMYDLNKNDYITREEFKVILNSMVGANITSDQLDKIADRTIEEADADRDGKISFDEFCRAMEKTDIEEKMSIRFLN”, for which the “soluble on expression in E. coli” value is “soluble”.
